The values that follow come from the Human Domainome abundance scans (Beltran et al. 2025).

± gives the uncertainty stated by the source.

The nature of the series: abundance fitness (aPCA) (normalised: wild type 0, dead -1); higher = more abundant; growth selection in yeast, the domain comes from the species named. To be noted: Homo sapiens.
“DnaJ homolog subfamily B member 1 K37V, P25685” returned an abundance fitness of -0.356 ± 0.083.
In the case of “DnaJ homolog subfamily B member 1 K37Y, P25685” it was -0.277 ± 0.15; in that of “DnaJ homolog subfamily B member 1 K44A, P25685”, -0.138 ± 0.092; in that of “DnaJ homolog subfamily B member 1 K44C, P25685”, -0.208 ± 0.14.
“DnaJ homolog subfamily B member 1 K44D, P25685” returned an abundance fitness of -0.356 ± 0.15.
Take “DnaJ homolog subfamily B member 1 K44E, P25685”: the abundance fitness is -0.322 ± 0.077.
In the case of “DnaJ homolog subfamily B member 1 K44F, P25685” it was -0.298 ± 0.12; in that of “DnaJ homolog subfamily B member 1 K44G, P25685”, -0.39 ± 0.062; in that of “DnaJ homolog subfamily B member 1 K44H, P25685”, -0.182 ± 0.16.
In the case of “DnaJ homolog subfamily B member 1 K44I, P25685”, the abundance fitness was -0.279 ± 0.2.
In the case of “DnaJ homolog subfamily B member 1 K44L, P25685” it was -0.144 ± 0.051.
The result for “DnaJ homolog subfamily B member 1 K44M, P25685” reads -0.134 ± 0.068; that for “DnaJ homolog subfamily B member 1 K44N, P25685”, -0.204 ± 0.13.
The result for “DnaJ homolog subfamily B member 1 K44P, P25685” reads -0.717 ± 0.096; that for “DnaJ homolog subfamily B member 1 K44Q, P25685”, -0.192 ± 0.16; that for “DnaJ homolog subfamily B member 1 K44R, P25685”, -0.057 ± 0.084.
“DnaJ homolog subfamily B member 1 K44W, P25685” displayed an abundance fitness of -0.315 ± 0.11.
In the case of “DnaJ homolog subfamily B member 1 K44Y, P25685” it was -0.268 ± 0.1; in that of “DnaJ homolog subfamily B member 1 K46A, P25685”, -0.277 ± 0.35; in that of “DnaJ homolog subfamily B member 1 K46G, P25685”, -0.016 ± 0.16.
In turn, “DnaJ homolog subfamily B member 1 K46I, P25685” registered an abundance fitness of -0.116 ± 0.15.
“DnaJ homolog subfamily B member 1 K46L, P25685” showed an abundance fitness of -0.639 ± 0.43.
Substance “DnaJ homolog subfamily B member 1 K46T, P25685” showed an abundance fitness of -0.451 ± 0.31.
The result for “DnaJ homolog subfamily B member 1 K46W, P25685” reads -0.175 ± 0.31.
Substance “DnaJ homolog subfamily B member 1 K60A, P25685” showed an abundance fitness of -0.172 ± 0.093.
The result for “DnaJ homolog subfamily B member 1 K60C, P25685” reads -0.696 ± 0.21; that for “DnaJ homolog subfamily B member 1 K60D, P25685”, -0.442 ± 0.13; that for “DnaJ homolog subfamily B member 1 K60E, P25685”, -0.159 ± 0.14.
“DnaJ homolog subfamily B member 1 K60G, P25685” yielded an abundance fitness of -0.325 ± 0.073.
Regarding “DnaJ homolog subfamily B member 1 K60H, P25685”, the abundance fitness is -0.171 ± 0.082.
Substance “DnaJ homolog subfamily B member 1 K60I, P25685” had an abundance fitness of -0.654 ± 0.16.
The result for “DnaJ homolog subfamily B member 1 K60L, P25685” reads -0.426 ± 0.052.
The result for “DnaJ homolog subfamily B member 1 K60M, P25685” reads -0.462 ± 0.11; that for “DnaJ homolog subfamily B member 1 K60N, P25685”, -0.311 ± 0.098; that for “DnaJ homolog subfamily B member 1 K60P, P25685”, -0.352 ± 0.17.
As to “DnaJ homolog subfamily B member 1 K60Q, P25685”, the abundance fitness is -0.128 ± 0.085.
In the case of “DnaJ homolog subfamily B member 1 K60S, P25685” it was -0.216 ± 0.072.
The result for “DnaJ homolog subfamily B member 1 K60T, P25685” reads -0.298 ± 0.09.
In the case of “DnaJ homolog subfamily B member 1 K60V, P25685” it was -0.706 ± 0.11; in that of “DnaJ homolog subfamily B member 1 K60Y, P25685”, -0.575 ± 0.29.
In turn, “DnaJ homolog subfamily B member 1 L9A, P25685” displayed an abundance fitness of -0.892 ± 0.26.
As to “DnaJ homolog subfamily B member 1 L9C, P25685”, the abundance fitness is -0.823 ± 0.11.
Take “DnaJ homolog subfamily B member 1 L9E, P25685”: the abundance fitness is -0.631 ± 0.13.
For “DnaJ homolog subfamily B member 1 L9G, P25685”, the abundance fitness is -0.855 ± 0.074.
The result for “DnaJ homolog subfamily B member 1 L9H, P25685” reads -1.12 ± 0.12; that for “DnaJ homolog subfamily B member 1 L9I, P25685”, -0.546 ± 0.13.
The substance “DnaJ homolog subfamily B member 1 L9K, P25685” had an abundance fitness of -1.26 ± 0.23.
On to “DnaJ homolog subfamily B member 1 L9M, P25685”, for which the abundance fitness was -0.412 ± 0.16.
The result for “DnaJ homolog subfamily B member 1 L9N, P25685” reads -0.664 ± 0.11.
The substance “DnaJ homolog subfamily B member 1 L9P, P25685” returned an abundance fitness of -0.726 ± 0.082.
As to “DnaJ homolog subfamily B member 1 L9Q, P25685”, the abundance fitness was -0.649 ± 0.095.
The result for “DnaJ homolog subfamily B member 1 L9R, P25685” reads -1.01 ± 0.095.
As for “DnaJ homolog subfamily B member 1 L9S, P25685”, the abundance fitness was -0.681 ± 0.079.
On to “DnaJ homolog subfamily B member 1 L9T, P25685”, for which the abundance fitness was -0.69 ± 0.14.
In the case of “DnaJ homolog subfamily B member 1 L9V, P25685” it was -0.697 ± 0.17.
The result for “DnaJ homolog subfamily B member 1 L9W, P25685” reads -1.25 ± 0.17; that for “DnaJ homolog subfamily B member 1 L9Y, P25685”, -0.818 ± 0.11.
In the case of “DnaJ homolog subfamily B member 1 L11A, P25685” it was -0.147 ± 0.078; in that of “DnaJ homolog subfamily B member 1 L11C, P25685”, -0.018 ± 0.088.
“DnaJ homolog subfamily B member 1 L11D, P25685” displayed an abundance fitness of -0.776 ± 0.16.
In turn, “DnaJ homolog subfamily B member 1 L11E, P25685” had an abundance fitness of -0.5 ± 0.15.
The result for “DnaJ homolog subfamily B member 1 L11F, P25685” reads -0.949 ± 0.11; that for “DnaJ homolog subfamily B member 1 L11G, P25685”, -0.773 ± 0.071.
In the case of “DnaJ homolog subfamily B member 1 L11H, P25685” it was -0.795 ± 0.15.
The substance “DnaJ homolog subfamily B member 1 L11I, P25685” yielded an abundance fitness of 0.015 ± 0.1.
In the case of “DnaJ homolog subfamily B member 1 L11K, P25685” it was -0.849 ± 0.19; in that of “DnaJ homolog subfamily B member 1 L11M, P25685”, -0.423 ± 0.12; in that of “DnaJ homolog subfamily B member 1 L11N, P25685”, -0.712 ± 0.12.
In turn, “DnaJ homolog subfamily B member 1 L11P, P25685” had an abundance fitness of -0.759 ± 0.12.
In turn, “DnaJ homolog subfamily B member 1 L11Q, P25685” had an abundance fitness of -0.464 ± 0.14.
In the case of “DnaJ homolog subfamily B member 1 L11R, P25685” it was -0.96 ± 0.075; in that of “DnaJ homolog subfamily B member 1 L11S, P25685”, -0.381 ± 0.081; in that of “DnaJ homolog subfamily B member 1 L11T, P25685”, -0.209 ± 0.11.
In the case of “DnaJ homolog subfamily B member 1 L11V, P25685” it was -0.041 ± 0.065.
For “DnaJ homolog subfamily B member 1 L11W, P25685”, the abundance fitness is -1.44 ± 0.15.
The substance “DnaJ homolog subfamily B member 1 L11Y, P25685” gave an abundance fitness of -1.1 ± 0.13.
With “DnaJ homolog subfamily B member 1 L29A, P25685”, the abundance fitness is -0.167 ± 0.085.
As for “DnaJ homolog subfamily B member 1 L29C, P25685”, the abundance fitness is -0.119 ± 0.086.
On to “DnaJ homolog subfamily B member 1 L29D, P25685”, for which the abundance fitness was -0.089 ± 0.16.
For “DnaJ homolog subfamily B member 1 L29E, P25685”, the abundance fitness is 0.067 ± 0.15.
Substance “DnaJ homolog subfamily B member 1 L29F, P25685” registered an abundance fitness of -0.04 ± 0.077.
The result for “DnaJ homolog subfamily B member 1 L29G, P25685” reads 0.01 ± 0.083; that for “DnaJ homolog subfamily B member 1 L29H, P25685”, -0.015 ± 0.12.
The result for “DnaJ homolog subfamily B member 1 L29I, P25685” reads 0.116 ± 0.12; that for “DnaJ homolog subfamily B member 1 L29K, P25685”, -0.116 ± 0.08; that for “DnaJ homolog subfamily B member 1 L29M, P25685”, -0.234 ± 0.12.
Substance “DnaJ homolog subfamily B member 1 L29N, P25685” registered an abundance fitness of -0.572 ± 0.3.
The result for “DnaJ homolog subfamily B member 1 L29P, P25685” reads -0.461 ± 0.16; that for “DnaJ homolog subfamily B member 1 L29Q, P25685”, 0.086 ± 0.18.
The result for “DnaJ homolog subfamily B member 1 L29R, P25685” reads -0.06 ± 0.077.
“DnaJ homolog subfamily B member 1 L29S, P25685”: the abundance fitness is -0.138 ± 0.058.
